Our source for the Kd values is PMC5121336.

For the assay, the target named is human LDL (low-density lipoprotein) (human). Briefly: SPR; LDL amine-coupled to a CM5 chip (Biacore T100); LDLR^ecto (5-388 nM) or ALK1^ecto (0.19-15.3 uM) as analytes, single cycle kinetics; 25 °C; 25 mM HEPES pH 7.4, 150 mM NaCl, 0.1 mM CaCl2; 1:1 binding model; apparent. (In general: Surface plasmon resonance follows binding to a sensor surface in real time, without labels.)

ALK1^ecto-Fc, sequence (P37023 22-118): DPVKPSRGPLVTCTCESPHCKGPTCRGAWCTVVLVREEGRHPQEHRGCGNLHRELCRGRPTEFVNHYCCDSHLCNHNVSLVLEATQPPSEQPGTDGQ

As for “LDLR^ecto-(His)6 (from UniProt P01130 22-788) (domain or fragment)”, the Kd came to 7 nM.
Consider “ALK1^ecto-Fc (from UniProt P37023 22-118) (Fc fusion)”, for which the Kd is 200 nM.
